The Kd is the free concentration of one partner at which half of the binding sites on the other are occupied at equilibrium, for simple one-to-one binding. A lower Kd goes with tighter binding.

For assay [1], the target named is T1, human SIRPβ1 domain 1 (D1) Fc fusion (human, UniProt O00241 30-148).
T1 construct: Made in HEK293/T cells with a heterologous signal peptide; also called Human SIRPβ1 D1-Fc; Human SIRPβ1-Fc; not shown: C-terminal human IgG1 Fc
Kind of assay: Octet, Fab monovalent. On the technique in general: In BLI a coated tip is dipped into the sample, and binding shifts an interference pattern.

Assay [2] deals with T1, human SIRPβ1 domain 1 (D1) Fc fusion. Kind of assay: Octet, Fab monovalent. This is another data set of the same source.
Method: Briefly, Octet® affinity measurements were performed by loading IgGs on-line onto AHQ sensors. Sensors were equilibrated off-line in assay buffer for 30 min and then monitored on-line for 60 seconds for baseline establishment. For avid binding measurement, sensors with loaded IgGs were exposed to 100 nM antigen (human SIRPα or SIRPβ1 Fc fusion) for 3 min, and then transferred to assay buffer for 3 min for off-rate measurement. Additional avid binding was determined by loading biotinylated SIRPβ1 monomer on SA sensors and exposuring to 100 nM IgG in solution. Monovalent binding measurements were obtained by loading human SIRPβ1 Fc fusion antigens to AHQ sensor, followed by exposure to 100 nM anti-SIRPβ1 antibody Fab. Additional monovalent measurements were made by loading biotinylated human SIRPβ1 monomer to SA sensor followed by exposure to 100 nM Fab in solution. Kinetics data were fit using a 1:1 binding model in the data analysis software provided by ForteBio.

Like-named read-outs stand apart in the source and are kept apart here.

T1 sequence (O00241 30-148 limits assumed): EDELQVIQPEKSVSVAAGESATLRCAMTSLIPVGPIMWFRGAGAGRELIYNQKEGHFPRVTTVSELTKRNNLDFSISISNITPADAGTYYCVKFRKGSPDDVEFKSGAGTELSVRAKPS

B1: SB-17 Fab (Fab, V domains shown)
VH: QVQLVQSGAEVKKPGASVKVSCKASGYTFTSYGISWVRQAPGQGLEWMGWISAYNGNTNYAQKLQGRVTMTTDTSTSTAYMELRSLRSDDTAVYYCARGPLLYGDYHVRYGMDVWGQGTTVTVSS
VL: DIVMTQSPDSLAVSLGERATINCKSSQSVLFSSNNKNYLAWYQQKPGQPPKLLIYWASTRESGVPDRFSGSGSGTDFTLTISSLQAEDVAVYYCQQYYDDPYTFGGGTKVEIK
notes: Fab by papain digestion
In assay [1], B1 returned a Kd of 0.246 µM.

B2: SB-1 Fab (Fab, V domains shown)
VH: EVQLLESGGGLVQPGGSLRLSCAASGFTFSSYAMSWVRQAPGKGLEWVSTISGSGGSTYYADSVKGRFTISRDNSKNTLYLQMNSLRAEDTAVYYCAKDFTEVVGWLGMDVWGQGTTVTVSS
VL: EIVMTQSPGTLSLSPGERATLSCRASQSVSSSYLAWYQQKPGQAPRLLIYGASSRATGIPDRFSGSGSGTDFTLTISRLEPEDFAVYYCQLLGSSPRTFGGGTKVEIK
notes: Fab by papain digestion
Take B2: the results for the dissociation constant Kd in assay [1] and in assay [2] were 0.0979 µM and 0.172 µM, respectively.

B3: SB-2 Fab (Fab, V domains shown)
VH: QVQLVESGGGVVQPGRSLRLSCAASGFTFSSYGMNWVRQAPGKGLEWVAVIWYDGSNKYYADSVKGRFTISRDNSKNTLYLQMNSLRAEDTAVYYCARDQTAAAAIWGMDVWGQGTTVTVSS
VL: EIVLTQSPGTLSLSPGERATLSCRASQSVSSSYLAWYQQKPGQAPRLLIYGASSRATGIPDRFSGSGSGTDFTLTISRLEPEDFAVYYCQQSSSHPFTFGGGTKVEIK
notes: Fab by papain digestion
As to B3, the Kd is 0.266 µM in assay [1] and 0.977 µM in assay [2].

B4: SB-8 Fab (Fab, V domains shown)
VH: QVQLQESGPGLVKPSETLSLTCAVSGYSISSGYYWGWIRQPPGKGLEWIGSIYHSGSTYYNPSLKSRVTISVDTSKNQFSLKLSSVTAADTAVYYCARGGAMTPAGMDVWGQGTTVTVSS
VL: EIVMTQSPGTLSLSPGERATLSCRASQSVSSSYLAWYQQKPGQAPRLLIYGASNRATGIPDRFSGSGSGTDFTLTISRLEPEDFAVYYCQQVYSSPYTFGGGTKVEIK
notes: Fab by papain digestion
Turning to B4, the Kd in assay [1] was found to be 0.126 µM; in assay [2] it was 0.151 µM.

B5: SB-15 Fab (Fab, V domains shown)
VH: QLQLQESGPGLVKPSETLSLTCTVSGGSISSNSYYWGWIRQPPGKGLEWIGSIYYSGSTYYNPSLKSRVTISVDTSKNQFSLKLSSVTAADTAVYYCAREVGAPPSYPFDIWGQGTMVTVSS
VL: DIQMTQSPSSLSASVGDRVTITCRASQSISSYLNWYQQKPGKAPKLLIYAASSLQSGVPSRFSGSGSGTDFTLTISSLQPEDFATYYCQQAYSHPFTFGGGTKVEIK
notes: Fab by papain digestion
Take B5: in assay [1], the Kd turned out to be 0.407 µM.

B6: SB-40 Fab (Fab, V domains shown)
VH: QVQLVQSGAEVKKPGASVKVSCKASGYTFTSYYMSWVRQAPGQGLEWMGIINPSGGSTSYAQKFQGRVTMTRDTSTSTVYMELSSLRSEDTAVYYCARDTGEYSYSPHGMDVWGQGTTVTVSS
VL: EIVLTQSPATLSLSPGERATLSCRASQSVSSYLAWYQQKPGQAPRLLIYDSSNRATGIPARFSGSGSGTDFTLTISSLEPEDFAVYYCQQRDEHPPWTFGGGTKVEIK
notes: Fab by papain digestion
B6: the Kd in assay [1] came out at 0.427 µM; in assay [2], 0.918 µM.

B7: SB-11 Fab (Fab, V domains shown)
VH: QVQLVQSGAEVKKPGSSVKVSCKASGGTFSNYAISWVRQAPGQGLEWMGGIIPIFGTANYAQKFQGRVTITADESTSTAYMELSSLRSEDTAVYYCARPVDSSSYSLGYYYGMDVWGKGTTVTVSS
VL: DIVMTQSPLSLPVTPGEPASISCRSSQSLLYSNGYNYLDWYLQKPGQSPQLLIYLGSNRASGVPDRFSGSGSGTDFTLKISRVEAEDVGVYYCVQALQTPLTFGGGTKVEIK
notes: Fab by papain digestion
As to B7, the affinity in assay [1], expressed as Kd, was 0.678 µM.
